B1: Sharpin (Homo sapiens), Q9H0F6 (parent)
chain: MAPPAGGAAAAASDLGSAAVLLAVHAAVRPLGAGPDAEAQLRRLQLSADPERPGRFRLELLGAGPGAVNLEWPLESVSYTIRGPTQHELQPPPGGPGTLSLHFLNPQEAQRWAVLVRGATVEGQNGSKSNSPPALGPEACPVSLPSPPEASTLKGPPPEADLPRSPGNLTEREELAGSLARAIAGGDEKGAAQVAAVLAQHRVALSVQLQEACFPPGPIRLQVTLEDAASAASAASSAHVALQVHPHCTVAALQEQVFSELGFPPAVQRWVIGRCLCVPERSLASYGVRQDGDPAFLYLLSAPREAPATGPSPQHPQKMDGELGRLFPPSLGLPPGPQPAASSLPSPLQPSWSCPSCTFINAPDRPGCEMCSTQRPCTWDPLAAAST

Variants of B1 are the subject of the test. The conditions noted are these: with rnf31_human RNF31, Q96EP0.
rnf31_human RNF31, Q96EP0, sequence (Q96EP0 whole entry): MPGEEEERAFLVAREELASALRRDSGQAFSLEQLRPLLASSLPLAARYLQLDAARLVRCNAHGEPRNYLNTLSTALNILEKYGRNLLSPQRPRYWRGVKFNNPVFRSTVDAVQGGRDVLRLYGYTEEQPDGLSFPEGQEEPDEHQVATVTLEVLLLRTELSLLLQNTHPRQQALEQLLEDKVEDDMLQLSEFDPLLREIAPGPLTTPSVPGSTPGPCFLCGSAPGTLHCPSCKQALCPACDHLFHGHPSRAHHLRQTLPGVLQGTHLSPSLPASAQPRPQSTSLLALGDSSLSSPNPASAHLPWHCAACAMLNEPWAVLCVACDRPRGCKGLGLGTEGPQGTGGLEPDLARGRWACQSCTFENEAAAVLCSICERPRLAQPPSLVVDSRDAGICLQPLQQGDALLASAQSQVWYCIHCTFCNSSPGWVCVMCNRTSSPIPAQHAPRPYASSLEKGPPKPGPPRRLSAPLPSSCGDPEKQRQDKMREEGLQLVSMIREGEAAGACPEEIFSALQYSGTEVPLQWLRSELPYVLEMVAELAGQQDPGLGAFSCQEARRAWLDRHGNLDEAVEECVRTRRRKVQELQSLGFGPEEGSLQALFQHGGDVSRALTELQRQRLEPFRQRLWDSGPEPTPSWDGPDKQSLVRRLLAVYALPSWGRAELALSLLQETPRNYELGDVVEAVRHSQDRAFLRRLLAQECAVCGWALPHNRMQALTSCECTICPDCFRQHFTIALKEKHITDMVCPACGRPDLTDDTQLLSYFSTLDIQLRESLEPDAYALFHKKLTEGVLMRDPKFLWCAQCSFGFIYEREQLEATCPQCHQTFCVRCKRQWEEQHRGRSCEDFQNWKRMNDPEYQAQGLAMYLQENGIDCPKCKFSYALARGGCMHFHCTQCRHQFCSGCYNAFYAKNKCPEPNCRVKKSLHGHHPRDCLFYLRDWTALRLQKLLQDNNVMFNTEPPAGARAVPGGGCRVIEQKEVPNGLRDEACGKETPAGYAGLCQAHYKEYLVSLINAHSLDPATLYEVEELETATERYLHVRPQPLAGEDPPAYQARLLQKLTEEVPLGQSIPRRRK
For MAPPAGGAAAAASDLGSAAVLLAVHAAVRPLGAGPDAEAQLRRLQLSADPERPGRFRLELLGAGPGAVNLEWPLESVSYTIRGPTQHELQPPPGGPGTLSLHFLNPQEAQRWAVLVRGATVEGQNGSKSNSPPALGPEACPVSLPSPPEASTLKGPPPEADLPRSPGNLTEREELAGSLARAIAGGDEKGAAQVAAVLAQHRVALSVQLQEACFPPGPIRLQVTLEDAASAASAASSAHVALQVHPHCTVAALQEQVFSELGFPPAVQRWVAGRCLCVPERSLASYGVRQDGDPAFLYLLSAPREAPATGPSPQHPQKMDGELGRLFPPSLGLPPGPQPAASSLPSPLQPSWSCPSCTFINAPDRPGCEMCSTQRPCTWDPLAAAST [I272A], the “effect of a mutation on the interaction” value is recorded as “disrupting interaction”.
